The results in this text go back to US9273099 (Dana-Farber, dated 2016).

For test [1], the target named is C-terminal deleted GST-BCL-2 (UniProt P10415). Put plainly: fluorescence polarization binding. In general terms: Fluorescence polarisation rises when a labelled molecule tumbles more slowly, as on binding a larger partner.
Test [2] shares this target. Put plainly: fluorescence polarization, displacement of prebound FITC-BID BH3 from BCL-2.
The target is the same in test [3]. As to the kind of experiment: direct fluorescence polarization, 25 nM fluoresceinated peptide with GST-BCL2 25-1000 nM.
For test [4] the target is unchanged. As to the kind of experiment: direct fluorescence polarization.
The target is the same in test [5]. Put plainly: fluorescence polarization competitive binding, FITC-BID BH3 as competitor.
For test [6] the target is unchanged. As to the kind of experiment: fluorescence polarization, displacement of FITC-BID BH3 from BCL-2.
Test [7] has the same target. As to the kind of experiment: fluorescence polarization direct binding.
The target in another test is T1, Full-length BAX protein (UniProt Q07812 1-192, limits assumed).
T1 construct: mature
As to the kind of experiment: BAX fluorescence polarization direct binding assay.

Where no end group is shown, it is not given here. The star is where a group is joined. FITC = O=C1OC2(c3ccc(O)cc3Oc3cc(O)ccc32)c2ccc(NC(=S)*)cc21; βAla = NCCC(=O)O

T1 sequence (Q07812 whole entry): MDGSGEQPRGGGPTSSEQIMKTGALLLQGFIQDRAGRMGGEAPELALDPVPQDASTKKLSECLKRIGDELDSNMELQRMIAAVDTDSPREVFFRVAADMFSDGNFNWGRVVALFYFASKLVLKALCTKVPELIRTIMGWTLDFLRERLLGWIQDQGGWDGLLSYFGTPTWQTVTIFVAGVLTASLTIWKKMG
Experimental for Full-length BAX protein: Binding activity was measured by fluorescence polarization on a Perkin-Elmer LS50B luminescence spectrophotometer. KD values were determined by nonlinear regression analysis using Prism software (Graphpad).

One may read the Kd as the constant that tells how readily two partners part at equilibrium. Read a low Kd as a tighter complex. Broadly, the IC50 is the point on the concentration scale where inhibition reaches its midpoint. Higher therefore signals weaker potency. As to “BAD BH3 domain peptide (from UniProt Q92934 103-127)”, in test [1], the dissociation constant Kd was 41 nM. Moreover, the IC50 in test [2] stood at 173 nM. In the case of FITC-SAHB3BID(G→E)A (peptide), in test [3], the Kd stood at 483 nM. As to FITC-SAHB3BIDA (peptide), the Kd in test [3] stood at 38.8 nM. In addition, in test [4], the fold enhancement in binding affinity against unmodified BID BH3 was over 6 fold and the fold enhancement in binding affinity against unmodified BID BH3 peptide is 6 fold. SAHB3BID(tr)B (16-mer) (peptide): the fold drop against the 23-mer SAHB3BIDB in test [5] is over 6 fold.

In test [6], SAHB3BIDA (unlabeled) (peptide) came in with a half-maximal inhibitory concentration (IC50) of 62 nM and a fold increase in displacement potency against unmodified BID BH3 peptide of over 13 fold.

B1: FITC-labeled unmodified BID BH3 peptide (peptide, UniProt P55957 80-101, looked up)
peptide: {FITC-βAla}-EDIIRNIARHLAQVGDSMDRSI
notes: domain: BH3; also called FITC-BID BH3; FITC-labeled BID BH3 peptide
As for B1, the equilibrium dissociation constant (Kd) in test [7] was 220 nM. Also, in the test with Full-length BAX protein, the binding result is recorded as “no binding”.
